Results: US20230407401A1 (NATIONAL INSTITUTE OF IMMUNOLOGY, published 2023)

Biological target: T1, S35 methionine radiolabelled BLM (in vitro translated) (UniProt P54132 1-1417, limits assumed, S35 methionine radiolabel)
T1 construct: also called in vitro translated BLM; radioactive BLM
Assay: in vitro interaction of S35 methionine radiolabelled BLM with bound GST SMAD3, autoradiography
Procedure: H. BLM directly interacted with SMAD3 and HDAC1. (Top) In vitro interactions were carried out with S35 methionine radiolabelled BLM and bound (left) GST and GST SMAD3, (right) GST and GST HDAC1. Post-interaction the bound radioactive BLM was detected by autoradiography. (Bottom) Inputs used for in vitro translated BLM (detected by autoradiography) and GST, GST SMAD3, GST HDAC1 (detected by Coomassie). The

T1 sequence (P54132 whole entry): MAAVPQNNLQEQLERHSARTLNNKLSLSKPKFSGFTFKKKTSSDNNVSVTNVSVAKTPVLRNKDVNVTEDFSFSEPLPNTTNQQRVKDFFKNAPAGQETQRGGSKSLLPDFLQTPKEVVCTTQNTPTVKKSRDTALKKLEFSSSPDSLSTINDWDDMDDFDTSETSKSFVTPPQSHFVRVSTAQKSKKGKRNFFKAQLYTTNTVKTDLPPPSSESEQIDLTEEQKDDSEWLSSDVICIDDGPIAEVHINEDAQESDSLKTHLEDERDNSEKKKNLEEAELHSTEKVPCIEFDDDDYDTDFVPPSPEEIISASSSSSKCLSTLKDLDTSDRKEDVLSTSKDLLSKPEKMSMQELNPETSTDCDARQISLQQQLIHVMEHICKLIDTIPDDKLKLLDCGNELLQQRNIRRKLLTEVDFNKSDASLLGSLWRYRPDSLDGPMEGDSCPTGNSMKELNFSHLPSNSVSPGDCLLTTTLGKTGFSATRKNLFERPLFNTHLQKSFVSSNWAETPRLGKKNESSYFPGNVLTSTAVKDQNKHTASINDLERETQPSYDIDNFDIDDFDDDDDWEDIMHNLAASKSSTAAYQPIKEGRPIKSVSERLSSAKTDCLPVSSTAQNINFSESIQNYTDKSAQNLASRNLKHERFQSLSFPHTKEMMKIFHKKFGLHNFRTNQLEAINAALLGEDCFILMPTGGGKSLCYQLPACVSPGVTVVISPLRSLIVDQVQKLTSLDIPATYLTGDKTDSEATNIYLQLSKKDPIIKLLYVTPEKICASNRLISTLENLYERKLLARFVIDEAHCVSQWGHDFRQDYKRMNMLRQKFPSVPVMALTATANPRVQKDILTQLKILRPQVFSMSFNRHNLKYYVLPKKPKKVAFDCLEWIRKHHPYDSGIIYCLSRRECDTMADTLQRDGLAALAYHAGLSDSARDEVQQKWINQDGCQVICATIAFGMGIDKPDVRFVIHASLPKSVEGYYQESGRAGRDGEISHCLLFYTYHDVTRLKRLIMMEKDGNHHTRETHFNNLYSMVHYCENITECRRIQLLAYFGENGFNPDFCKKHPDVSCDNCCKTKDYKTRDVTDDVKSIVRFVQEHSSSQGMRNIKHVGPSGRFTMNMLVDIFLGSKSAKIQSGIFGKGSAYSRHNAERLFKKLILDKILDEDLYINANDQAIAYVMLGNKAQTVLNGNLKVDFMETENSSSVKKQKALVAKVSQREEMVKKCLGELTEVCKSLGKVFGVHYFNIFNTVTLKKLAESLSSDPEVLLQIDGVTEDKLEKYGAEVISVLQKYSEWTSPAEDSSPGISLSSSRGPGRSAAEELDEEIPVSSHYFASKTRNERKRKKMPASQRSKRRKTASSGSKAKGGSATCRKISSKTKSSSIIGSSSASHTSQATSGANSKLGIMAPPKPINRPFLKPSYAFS

- binding result: binds
B1: GST SMAD3 (WT) (other, UniProt P84022 1-425, looked up)
chain: MSSILPFTPPIVKRLLGWKKGEQNGQEEKWCEKAVKSLVKKLKKTGQLDELEKAITTQNVNTKCITIPRSLDGRLQVSHRKGLPHVIYCRLWRWPDLHSHHELRAMELCEFAFNMKKDEVCVNPYHYQRVETPVLPPVLVPRHTEIPAEFPPLDDYSHSIPENTNFPAGIEPQSNIPETPPPGYLSEDGETSDHQMNHSMDAGSPNLSPNPMSPAHNNLDLQPVTYCEPAFWCSISYYELNQRVGETFHASQPSMTVDGFTDPSNSERFCLGLLSNVNRNAAVELTRRHIGRGVRLYYIGGEVFAECLSDSAIFVQSPNCNQRYGWHPATVCKIPPGCNLKIFNNQEFAALLAQSVNQGFEAVYQLTRMCTIRMSFVKGWGAEYRRQTVTSTPCWIELHLNGPLQWLDKVLTQMGSPSIRCSSVS
notes: also called pGEX6-SMAD3 WT; not shown: Glutathione S-transferase tag of the pGEX6 vector
